We go through 125 sequences from the supplement of paper PMC9112550, “Optimization of the antimicrobial peptide Bac7 by deep mutational scanning” (BMC Biology, 2022).

This series has as its system Escherichia coli TOP10. As to the kind of experiment: shrunken log2 fold change of peptide-encoding DNA abundance (4.5 h post-induction vs induction); higher = less antimicrobial activity (less host growth inhibition). The conditions noted are these: time post-induction: 4.5 h; library: site-saturation at positions 5, 18, 19, 20.
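Further: peptides expressed intracellularly from a pBAD plasmid library in pooled LB shake-flask culture, induced with 0.3% L-arabinose, DNA abundance read by NGS, three biological replicates, DESeq2 with apeglm shrinkage.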

Turning to RRIRIRPPRLPRPRPRPMPSPRP, the “shrunken log2 fold change” value was -0.0227.

On to RRIRFRPPRLPRPRPRPNVIPRP, for which the “shrunken log2 fold change” value was -0.173.

On to RRIRSRPPRLPRPRPRPCNDPRP, for which the “shrunken log2 fold change” value was -0.261.

As for RRIRWRPPRLPRPRPRPCKQPRP, the “shrunken log2 fold change” value was -0.156.

As to RRIRHRPPRLPRPRPRPSLRPRP, the “shrunken log2 fold change” value was -0.244.

Turning to RRIRQRPPRLPRPRPRPPTRPRP, the “shrunken log2 fold change” value is 0.398.

As to RRIRYRPPRLPRPRPRPDVPPRP, the “shrunken log2 fold change” value was -0.0784.

As to RRIRDRPPRLPRPRPRPAPFPRP, the “shrunken log2 fold change” value came out at 0.196.

Take RRIRNRPPRLPRPRPRPSLVPRP: the “shrunken log2 fold change” value was -0.292.

RRIRMRPPRLPRPRPRPIIRPRP: the “shrunken log2 fold change” value is 0.0027.

Regarding RRIRPRPPRLPRPRPRPIQFPRP, the “shrunken log2 fold change” value was -0.145.

On to RRIRNRPPRLPRPRPRPHINPRP, for which the “shrunken log2 fold change” value was -1.02.

As to RRIRFRPPRLPRPRPRPHMWPRP, the “shrunken log2 fold change” value is -0.951.

Regarding RRIRARPPRLPRPRPRPEYHPRP, the “shrunken log2 fold change” value came to 0.0454.

Turning to RRIRSRPPRLPRPRPRPQIGPRP, the “shrunken log2 fold change” value is -1.62.

Take RRIRTRPPRLPRPRPRPKKTPRP: the “shrunken log2 fold change” value amounted to 0.0546.

Consider RRIRFRPPRLPRPRPRPHIMPRP, for which the “shrunken log2 fold change” value is -0.709.

RRIRQRPPRLPRPRPRPIFIPRP: the “shrunken log2 fold change” value was -0.472.

As for RRIRNRPPRLPRPRPRPMTHPRP, the “shrunken log2 fold change” value is -0.405.

Consider RRIRRRPPRLPRPRPRPGYTPRP, for which the “shrunken log2 fold change” value came out at 0.243.

For the sequence RRIRTRPPRLPRPRPRPNDRPRP, the “shrunken log2 fold change” value was determined as 0.21.

With RRIRLRPPRLPRPRPRPDFLPRP, the “shrunken log2 fold change” value was -0.181.

On to RRIRMRPPRLPRPRPRPCVGPRP, for which the “shrunken log2 fold change” value is 0.584.

In the case of RRIRSRPPRLPRPRPRPGGGPRP, the “shrunken log2 fold change” value was 0.908.

With RRIRMRPPRLPRPRPRPWKYPRP, the “shrunken log2 fold change” value was -0.198.

As for RRIRYRPPRLPRPRPRPRNIPRP, the “shrunken log2 fold change” value was -0.00665.

Regarding RRIRQRPPRLPRPRPRPEACPRP, the “shrunken log2 fold change” value is -0.000521.

As for RRIRSRPPRLPRPRPRPFFTPRP, the “shrunken log2 fold change” value is -0.00429.

Regarding RRIRLRPPRLPRPRPRPGRYPRP, the “shrunken log2 fold change” value is -0.124.

On to RRIRERPPRLPRPRPRPQYKPRP, for which the “shrunken log2 fold change” value was -0.675.

As to RRIRERPPRLPRPRPRPGNSPRP, the “shrunken log2 fold change” value was -0.115.

For the sequence RRIRERPPRLPRPRPRPICTPRP, the “shrunken log2 fold change” value is -0.249.

In the case of RRIRCRPPRLPRPRPRPLKGPRP, the “shrunken log2 fold change” value is -0.204.

RRIRWRPPRLPRPRPRPRNQPRP: the “shrunken log2 fold change” value was determined as 0.145.

RRIRFRPPRLPRPRPRPAQRPRP: the “shrunken log2 fold change” value is 0.302.

As to RRIRRRPPRLPRPRPRPLMFPRP, the “shrunken log2 fold change” value was 0.0336.

RRIRLRPPRLPRPRPRPRRWPRP: the “shrunken log2 fold change” value was found to be 0.497.

Take RRIRLRPPRLPRPRPRPHETPRP: the “shrunken log2 fold change” value is -0.236.

As to RRIRYRPPRLPRPRPRPPNVPRP, the “shrunken log2 fold change” value came to 0.0158.

Regarding RRIRCRPPRLPRPRPRPCQYPRP, the “shrunken log2 fold change” value came out at 0.0234.

Consider RRIRVRPPRLPRPRPRPENMPRP, for which the “shrunken log2 fold change” value was -0.0886.

Regarding RRIRGRPPRLPRPRPRPVAYPRP, the “shrunken log2 fold change” value was 0.0402.

As for RRIRSRPPRLPRPRPRPHVGPRP, the “shrunken log2 fold change” value was -0.0134.

Take RRIRIRPPRLPRPRPRPHWGPRP: the “shrunken log2 fold change” value was -0.175.

Regarding RRIRWRPPRLPRPRPRPTQWPRP, the “shrunken log2 fold change” value is 0.346.

Take RRIRFRPPRLPRPRPRPFPDPRP: the “shrunken log2 fold change” value was -0.137.

In the case of RRIRVRPPRLPRPRPRPMKLPRP, the “shrunken log2 fold change” value was -0.0169.

Take RRIRERPPRLPRPRPRPLQEPRP: the “shrunken log2 fold change” value was -0.154.

Regarding RRIRERPPRLPRPRPRPKMHPRP, the “shrunken log2 fold change” value is -0.134.

For the sequence RRIRLRPPRLPRPRPRPLRLPRP, the “shrunken log2 fold change” value amounted to 0.417.

In the case of RRIRMRPPRLPRPRPRPGPAPRP, the “shrunken log2 fold change” value stood at 1.71.

RRIRLRPPRLPRPRPRPNMYPRP: the “shrunken log2 fold change” value is -0.284.

As to RRIRFRPPRLPRPRPRPMDFPRP, the “shrunken log2 fold change” value was -0.00674.

Regarding RRIRNRPPRLPRPRPRPKIYPRP, the “shrunken log2 fold change” value is -0.0429.

RRIRERPPRLPRPRPRPGMNPRP: the “shrunken log2 fold change” value is -0.308.

Take RRIRSRPPRLPRPRPRPFYTPRP: the “shrunken log2 fold change” value was -0.903.

RRIRIRPPRLPRPRPRPLLRPRP: the “shrunken log2 fold change” value was -0.239.

Turning to RRIRFRPPRLPRPRPRPNGLPRP, the “shrunken log2 fold change” value was -0.0551.

Regarding RRIRSRPPRLPRPRPRPGGNPRP, the “shrunken log2 fold change” value is 0.163.

Turning to RRIRARPPRLPRPRPRPSLYPRP, the “shrunken log2 fold change” value came out at 0.0269.

With RRIRERPPRLPRPRPRPNKKPRP, the “shrunken log2 fold change” value was -0.187.

With RRIRFRPPRLPRPRPRPMKVPRP, the “shrunken log2 fold change” value is -0.344.

As for RRIRLRPPRLPRPRPRPFKQPRP, the “shrunken log2 fold change” value was -0.0215.

As to RRIRCRPPRLPRPRPRPSVWPRP, the “shrunken log2 fold change” value was 0.238.

Turning to RRIRHRPPRLPRPRPRPLCMPRP, the “shrunken log2 fold change” value is -0.708.

On to RRIRCRPPRLPRPRPRPESGPRP, for which the “shrunken log2 fold change” value is 0.0145.

Take RRIRPRPPRLPRPRPRPARVPRP: the “shrunken log2 fold change” value turned out to be 0.295.

For the sequence RRIRDRPPRLPRPRPRPNAEPRP, the “shrunken log2 fold change” value turned out to be 0.359.

Turning to RRIRSRPPRLPRPRPRPAHYPRP, the “shrunken log2 fold change” value was -0.131.

For RRIRNRPPRLPRPRPRPDVIPRP, the “shrunken log2 fold change” value is -0.135.

In the case of RRIRTRPPRLPRPRPRPHHSPRP, the “shrunken log2 fold change” value was -0.133.

Turning to RRIRMRPPRLPRPRPRPMYYPRP, the “shrunken log2 fold change” value was -0.339.

Take RRIRFRPPRLPRPRPRPWQHPRP: the “shrunken log2 fold change” value is -0.0848.

For the sequence RRIRKRPPRLPRPRPRPKRWPRP, the “shrunken log2 fold change” value came out at 0.906.

As to RRIRIRPPRLPRPRPRPDLFPRP, the “shrunken log2 fold change” value is -0.103.

For the sequence RRIRIRPPRLPRPRPRPHEHPRP, the “shrunken log2 fold change” value was -0.405.

In the case of RRIRRRPPRLPRPRPRPLMTPRP, the “shrunken log2 fold change” value was determined as 0.351.

For the sequence RRIRGRPPRLPRPRPRPEQPPRP, the “shrunken log2 fold change” value was 1.68.

Consider RRIRDRPPRLPRPRPRPCWRPRP, for which the “shrunken log2 fold change” value is 0.101.

Turning to RRIRSRPPRLPRPRPRPTEDPRP, the “shrunken log2 fold change” value worked out at 0.14.

For RRIRTRPPRLPRPRPRPWKCPRP, the “shrunken log2 fold change” value is -0.0161.

Turning to RRIRARPPRLPRPRPRPCNDPRP, the “shrunken log2 fold change” value is -0.0678.

Consider RRIRYRPPRLPRPRPRPYTFPRP, for which the “shrunken log2 fold change” value worked out at 0.041.

As to RRIRERPPRLPRPRPRPMYQPRP, the “shrunken log2 fold change” value is -0.0801.

Take RRIRDRPPRLPRPRPRPMRRPRP: the “shrunken log2 fold change” value is 0.363.

In the case of RRIRYRPPRLPRPRPRPACLPRP, the “shrunken log2 fold change” value is -0.211.

For RRIRNRPPRLPRPRPRPIYPPRP, the “shrunken log2 fold change” value was -0.246.

For the sequence RRIRIRPPRLPRPRPRPRGAPRP, the “shrunken log2 fold change” value amounted to 0.175.

Regarding RRIRIRPPRLPRPRPRPKDCPRP, the “shrunken log2 fold change” value is -0.0124.

As for RRIRWRPPRLPRPRPRPFWIPRP, the “shrunken log2 fold change” value amounted to 0.0876.

For RRIRGRPPRLPRPRPRPASVPRP, the “shrunken log2 fold change” value was found to be 0.454.

Consider RRIRLRPPRLPRPRPRPCTSPRP, for which the “shrunken log2 fold change” value was -0.114.

In the case of RRIRFRPPRLPRPRPRPWIKPRP, the “shrunken log2 fold change” value was -0.187.

RRIRCRPPRLPRPRPRPFRLPRP: the “shrunken log2 fold change” value is -0.0979.

For the sequence RRIRVRPPRLPRPRPRPSVTPRP, the “shrunken log2 fold change” value was -0.222.

Consider RRIRERPPRLPRPRPRPWLRPRP, for which the “shrunken log2 fold change” value stood at 0.0269.

On to RRIRVRPPRLPRPRPRPQQVPRP, for which the “shrunken log2 fold change” value is -0.0278.

With RRIRSRPPRLPRPRPRPDHRPRP, the “shrunken log2 fold change” value was determined as 0.0482.

As for RRIRYRPPRLPRPRPRPPFPPRP, the “shrunken log2 fold change” value was -0.0826.

With RRIRNRPPRLPRPRPRPVYWPRP, the “shrunken log2 fold change” value was determined as 0.0175.

With RRIRKRPPRLPRPRPRPRTSPRP, the “shrunken log2 fold change” value is 0.525.

Regarding RRIRFRPPRLPRPRPRPYAKPRP, the “shrunken log2 fold change” value was -0.552.

Turning to RRIRRRPPRLPRPRPRPGQKPRP, the “shrunken log2 fold change” value was -0.0196.

As for RRIRTRPPRLPRPRPRPWSFPRP, the “shrunken log2 fold change” value is -0.0893.

In the case of RRIRSRPPRLPRPRPRPYFEPRP, the “shrunken log2 fold change” value is -0.359.

Turning to RRIRERPPRLPRPRPRPMEAPRP, the “shrunken log2 fold change” value was -0.261.

For the sequence RRIRCRPPRLPRPRPRPIWVPRP, the “shrunken log2 fold change” value is -0.0515.

On to RRIRTRPPRLPRPRPRPHWMPRP, for which the “shrunken log2 fold change” value was -0.243.

In the case of RRIRSRPPRLPRPRPRPHWFPRP, the “shrunken log2 fold change” value is -0.0389.

On to RRIRKRPPRLPRPRPRPPTTPRP, for which the “shrunken log2 fold change” value came out at 0.452.

In the case of RRIRPRPPRLPRPRPRPRRMPRP, the “shrunken log2 fold change” value stood at 0.297.

RRIRERPPRLPRPRPRPPALPRP: the “shrunken log2 fold change” value turned out to be 0.114.

Regarding RRIRERPPRLPRPRPRPDSEPRP, the “shrunken log2 fold change” value was -0.0854.

Consider RRIRHRPPRLPRPRPRPMWGPRP, for which the “shrunken log2 fold change” value was -0.234.

Regarding RRIRARPPRLPRPRPRPTLCPRP, the “shrunken log2 fold change” value stood at 0.392.

For RRIRERPPRLPRPRPRPCDCPRP, the “shrunken log2 fold change” value stood at 0.00557.

RRIRPRPPRLPRPRPRPFLNPRP: the “shrunken log2 fold change” value is -0.622.

With RRIRIRPPRLPRPRPRPFYLPRP, the “shrunken log2 fold change” value is -0.882.

Consider RRIRTRPPRLPRPRPRPEERPRP, for which the “shrunken log2 fold change” value was found to be 0.12.

In the case of RRIRGRPPRLPRPRPRPVQDPRP, the “shrunken log2 fold change” value came to 0.197.

As to RRIRWRPPRLPRPRPRPHCWPRP, the “shrunken log2 fold change” value is 0.202.

Take RRIRIRPPRLPRPRPRPRRMPRP: the “shrunken log2 fold change” value was -0.12.

With RRIRERPPRLPRPRPRPSPDPRP, the “shrunken log2 fold change” value was -0.185.

On to RRIRARPPRLPRPRPRPDFAPRP, for which the “shrunken log2 fold change” value amounted to 0.533.

For RRIRTRPPRLPRPRPRPQWFPRP, the “shrunken log2 fold change” value is -0.0925.
